# Laboratory results: patent publication US9771395B2, “Enhanced influenza hemagglutinin binders” (UNIVERSITY OF WASHINGTON, priority 2014, dated 2017)
# B1: 1u84: scaffold protein (PDB ID 1u84) that HB36.6 is modeled on; non-protective control (protein)
# chain: SNAMDGQQLNRLLLEWIGAWDPFGLGKDAYDVEAASVLQAVYETEDARTLAARIQSIYEFAFDEPIPFPHCLKLARRLLELKQAASCPLP
# B2: HB36.6: HA stem binding protein, variant of HB36.5 with nine substitutions (SEQ ID NO: 3); FLAG-tagged in the studies (protein)
# chain: SNAMDGQQLNRLLLENIGAWDPFGLGKDAYTYQAAEVLKAVYETNRAFDLAMRIHWIYNFAFKRRIPFARTQKLARRLLELKQAASSPLP
# modifications: FLAG tag; (1)..(5) optionally absent; (86)..(90) optionally absent
# notes: FLAG-tagged in the studies
# B3: HB36.5: stable, broadly cross-reactive HA binding protein (SEQ ID NO: 4), parent of HB36.6 (protein)
# chain: SNAMDGQQLNRLLLEWIGAWDPFGLGKDAYDYEAAEVLKAVYETESAFDLAMRIHWIYNFAFKRQIPFAHAQKLARRLLELKQAASSPLP
# modifications: (1)..(5) optionally absent; (86)..(90) optionally absent
# Legend:
# CA09 virus [1] = assay: Pre-exposure administration and CA09 challenge in MyD88-/- mice; assay type: in vivo; conditions: 6.0 mg/kg IN 2 hrs before CA09
# Protocol: (§1) All animal experiments used in this study were approved by the University of Washington Institutional Animal Care and Use Committee. […] Two to forty-eight hours later, the mice were anesthetized by isoflurane and challenged intranasally with 10 MLD50 (fifty percent mouse lethal dose) of either A/California/07/09 (H1N1) (CA09) or A/PR/8/34 (H1N1) (PR8). In a therapeutic setting, mice received the protein binder 0 (2 hours post-infection), 1, 2, 3, or 4 days post infection. The mice were monitored daily for weight loss and survival until 14 days post-infection. Animals that lost more than 30% of their initial body weight were euthanized in accordance with our animal protocol. The SCID (NOD SCID gamma, strain NOD.Cg-Prkdcscid Il2rgtm1Wjl/SzJ) mice and the MyD88−/−(strain B6.129P2(SJL)-Myd88tm1.1Defr/J) mice were purchased from Jackson Laboratory.
# [2] = system: H1N1 A/California/07/2009 (CA09) virus; assay: Pre-exposure administration and lethal influenza challenge in BALB/c mice; assay type: in vivo
# Protocol: as §1
# CA09 virus [3] = assay: Pre-exposure administration and CA09 challenge in SCID mice; assay type: in vivo, NOD SCID gamma (SCID) mice; conditions: 6.0 mg/kg IN 2 hrs before CA09
# Protocol: as §1
# [4] = system: human (H1N1) and avian (H5N1) influenza viruses; assay: microbe, parasite or virus in culture; assay type: cell-based, Influenza virus
# CA09 virus [5] = assay: Post-exposure (therapeutic) administration after CA09 challenge in BALB/c mice; assay type: in vivo; conditions: for protection from lethality: 10 MLD50 CA09
# Protocol: as §1, with “Two to forty-eight hours later, the mice were anesthetized by isoflurane and challenged intranasally with 10 MLD50 (fifty percent mouse lethal dose) of either A/California/07/09 (H1N1) (CA09) or A/PR/8/34 (H1N1) (PR8).” left out
# [6] = Bio-Plex inflammatory cytokines in lung homogenates after protein administration (no infection); assay type: in vivo, BALB/c mice; conditions: single IN dose 6.0 mg/kg
# Protocol: The concentrations of cytokines in lung tissue were measured. […] Lungs were thawed, weighed and lysed using the Bio-Plex® Cell Lysis Kit (Bio-Rad, Hercules, Calif.). The levels of interleukin (IL)-6, IL-10. IL-12(p70), interferon (IFN)-γ, and tumor necrosis factor (TNF)-α in the lysate were measured using a Bio-Plex) multiplex bead array kit (Bio-Rad, Hercules, Calif.). The Bio-Plex® assay was performed in accordance with the manufacturer's instructions.
# H5 HA = assay type: binding, Influenza virus
# CA09 virus [7] = system: CA09 virus; parameters: species or system BALB/c mice; conditions: mouse, in vivo
# [8] = system: Group I Hemagglutinin (HA) subtypes; assay type: binding, Influenza virus
# H2 HA = assay type: binding, Influenza virus
# [9] = ELISA for serum binding antibodies against HB36.6 after repeat dosing; assay type: in vivo, mice; conditions: 3.0 mg/kg IN doses two weeks apart
# Protocol: Plates were blocked with 5% nonfat milk powder in PBS for 1 h at room temperature, and then washed three times with wash buffer (PBS-T; phosphate-buffered saline containing 0.05% Tween 20). Two-fold serial dilutions of samples were added to the wells and plates were incubated for 1 hr at room temperature. Following three washes with PBS-T, plates were incubated with horseradish-peroxidase conjugated goat anti-mouse IgG (1/3,000 dilution) secondary antibodies (Thermo Scientific Pierce) for 1 h at room temperature. After five washes with PBS-T, TMB substrate (KPL) was added to the wells for 30 min at room temperature.
# CA09 virus [10] = assay: Lung immunohistochemistry for influenza nucleoprotein (NP) after CA09 challenge; assay type: in vivo, BALB/c mice
# Protocol: During in vivo challenge experiments, lungs were removed from mice and immersed in 10% neutral buffered formalin. Following fixation, tissues were removed from formalin and placed in paraffin. Immunohistochemical staining was performed on the Leica Bond Automated Immunostainer. Sections were deparaffinized in Leica Bond Dewax Solution (Leica Cat No. AR922) and rehydrated through 100% EtOH. After antigen retrieval with EDTA buffer pH 9.0 (Lieca Bond Epitope Retrieval Solution 2, Cat No AR9640) at 100° C. for 20 minutes and blocking endogenous peroxidase activity with 3.0% H2O2 for 5 minutes and blocking with 10% Normal Donkey Serum in TBS for 20 minutes the sections were incubated with Goat anti Influenza A Virus, (Meridian Life Science Inc. Cat No. B65141G) at 1:2000 or Normal Goat IgG, isotype control. (Invitrogen Cat No. 02-6202) at (1:5000 dilution) both in Bond Primary Antibody Diluent (Leica Cat No. AR9352) for 30 minutes at room temperature. Sections were then incubated with Rabbit anti Goat IgG (Jackson ImmunoResearch Cat. No. 305-005-045) 1:1500+5% Normal Donkey Serum for 8 minutes at RT followed by incubation with Goat anti Rabbit Poly-HRP polymer secondary detection (Leica Cat No DS9800) for 8 minutes at room temperature. Sections were then incubated with Leica Bond Mixed Refine DAB substrate detection for 10 minutes at room temperature. (Leica Cat No DS9800). […]
# CA09 virus [11] = assay: Bio-Plex inflammatory cytokines in lung homogenates after CA09 challenge; assay type: in vivo, BALB/c mice; conditions: 6.0 mg/kg IN 24 hrs before or after CA09; day 2 p.i.; P≦0.00119
# Protocol: The concentrations of cytokines in lung tissue were measured. On days 2 and 4 post-infection, 8 mice per group were sacrificed and whole lung tissue was collected and immediately frozen. Lungs were thawed, weighed and lysed using the Bio-Plex® Cell Lysis Kit (Bio-Rad, Hercules, Calif.). The levels of interleukin (IL)-6, IL-10. IL-12(p70), interferon (IFN)-γ, and tumor necrosis factor (TNF)-α in the lysate were measured using a Bio-Plex) multiplex bead array kit (Bio-Rad, Hercules, Calif.). The Bio-Plex® assay was performed in accordance with the manufacturer's instructions.
# [12] = mouse, in vivo
# [13] = molecular target: Hemagglutinin (HA) of pandemic 2009 California H1N1 (Influenza A virus, UniProt C3W5S1)
# [14] = system: A/California/07/2009 (CA09) influenza virus; parameters: species or system ferrets; conditions: in vivo
# [15] = 0.01 mg/kg IN two hours prior to lethal CA09 challenge
# [16] = 0.1 mg/kg IN two hours prior to lethal CA09 challenge
# [17] = 1.0 mg/kg IN two hours prior to lethal CA09 challenge
molecule,measurement,setting,value
lysozyme [reference compound],survival (protected mice),CA09 virus [1],0%
same,weight loss,CA09 virus [1],significant weight loss
same,protection,"[2]; 6.0 mg/kg, 48 or 2 hrs before CA09 challenge",no protection
same,survival (protected mice),CA09 virus [3],0%
same,weight loss,CA09 virus [3],significant weight loss
"NC(=O)c1ncn([C@@H]2O[C@H](CO)[C@@H](O)[C@H]2O)n1 [Ribavirin, 1- -D-ribofuranosyl-1,2,4-triazole-3-carboxamide, reference compound]",EC50,"[4]; Influenza A virus, MDCK, read-out: EC50 range",15 to 18 µg/mL
"CCOC(=O)C1=C[C@@H](OC(CC)CC)[C@H](NC(C)=O)[C@@H](N)C1 [oseltamivir, reference compound]",survival,"CA09 virus [5]; 5 mg/kg/day by oral gavage, twice daily for 5 days starting day +1 p.i., 3 MLD50 CA09",0%
same,delay of time to death compared to controls,"CA09 virus [5]; 5 mg/kg/day by oral gavage, twice daily for 5 days starting day +1 p.i., p<0.001",about 2.5 days
B1,survival (protected mice),CA09 virus [1],0%
same,weight loss,CA09 virus [1],significant weight loss
same,cytokine levels by 48 hrs,[6],dropped to pre-administration levels
same,survival (protected mice),CA09 virus [3],0%
same,weight loss,CA09 virus [3],significant weight loss
same,protection,CA09 virus [5]; daily administration after CA09 challenge,no protection
B2,survival (protected mice),CA09 virus [1],90%
same,weight loss,CA09 virus [1],minimal weight loss
same,50% effective concentration (EC50) range,[4],0.18 to 12.0 µg/mL
same,affinity increase over HB36.5,H5 HA,> 10 fold
same,reduction in mean viral titers in nasal washes vs untreated controls,CA09 virus [7],1-3 log-fold
same,mice recovered and survived,[2]; [15],20%
same,survived longer than controls,[2]; [15],2 to 3 days
same,weight loss,[2]; [15],exhibited weight loss
same,survival,[2]; [16],100%
same,weight loss,[2]; [16],little
same,survival,[2]; [17],100%
same,weight loss,[2]; [17],no
same,protection from mortality and morbidity,"[2]; lethal CA09 challenge 24 hours after the 4th dose (3.0 mg/kg IN), data not shown",100%
same,protection,"[2]; same dose (6.0 mg/kg) delivered intravenously (IV), data not shown",no protection
same,survival,"[2]; single IN dose 6.0 mg/kg at 2, 24 or 48 hours before 10 MLD50 CA09",100%
same,weight loss,[2]; single IN dose 6.0 mg/kg up to 48 hours before 10 MLD50 CA09,moderate to low
same,cytokine levels by 48 hrs,[6],dropped to pre-administration levels
same,cytokine levels compared with 1u84,[6],significantly lower than levels induced by 1u84
same,affinity compared with HB36.5,[8],higher affinity than HB36.5
same,cross-reactivity against Group I HA subtypes,[8],broadly cross-reactive
same,off-rates (dissociation),[8],did not show well-defined off-rates
same,survival (protected mice),CA09 virus [3],100%
same,weight loss,CA09 virus [3],minimal weight loss
same,affinity increase over HB36.5,H2 HA,greater than 40 fold
same,serum binding antibodies against HB36.6,[9]; after the 1st and 2nd dose,No antibodies against HB36.6 were detected
same,animals with low levels of antibody responses,[9]; by 3rd dose,4 of the 10
same,viral replication in the lungs vs untreated controls,"CA09 virus [10]; 6.0 mg/kg IN 1 day before or post-infection, day 2 and day 4 p.i.",significantly less viral replication
same,NP positive (infected) cells in lung tissue vs controls,"CA09 virus [10]; 6.0 mg/kg IN as therapeutic, day 4, P≦0.0263",significantly lower number of infected cells
same,"inflammatory cytokine response in lung (IL-6, IL-10, IL-12p70, TNF-α, IFN-γ)",CA09 virus [11],several cytokines were significantly lower than in the controls
same,detection of protein in lung tissue,[12],readily detected throughout the lung tissue
same,protection from lethality,CA09 virus [5]; 3.0 mg/kg IN daily for 4 days (days +1-4 p.i.),100%
same,protection from lethality,CA09 virus [5]; single IN dose 3.0 mg/kg 2 hours p.i.,100%
same,protection from lethality,CA09 virus [5]; single IN dose 3.0 mg/kg +1 day p.i.,60%
same,rate of survival,"CA09 virus [5]; single IN dose 10 mg/kg on day +1 p.i., 3 MLD50 CA09",70%
same,effect of a single dose on survivors,"CA09 virus [5]; single IN dose 1.0-10 mg/kg on day +1 p.i., CA09, dose-responsive",increase in the number of survivors
same,Kd stronger than HB36.5,[13],roughly 6 fold
same,Kd tighter than any known de novo binder,[13],5 fold
same,Kd,[13]; read-out: Kd against pandemic 2009 California H1N1,3.1 nM
same,protection against influenza challenge in ferrets,[14],affords prophylactic protection
B3,cross-reactivity against Group I HA subtypes,[8],broadly cross-reactive
